For this data set, the target named is GABP alpha (MBP fusion from pMAL-C2);GABP beta (MBP fusion from pMAL-C2) (Homo sapiens;Homo sapiens, UniProt Q06546;Q06547 1-454;1-395, |). As to the kind of experiment: EMSA; Bandshift conditions as in ref [16], not given; 6% nondenaturing acrylamide gel; recombinant proteins eluted in 25 mM HEPES pH 7.6, 0.1 mM EDTA, 40 mM KCl, 10%. Particulars: protein: recombinant;recombinant; tags: MBP N-terminal (pMAL-C2 vector);MBP N-terminal (pMAL-C2 vector); copies: 1;1; label: 32P. On the technique in general: Mobility shift assays separate free from complexed probe on a gel.
Sequence of GABP alpha (MBP fusion from pMAL-C2);GABP beta (MBP fusion from pMAL-C2) (Q06546 whole entry, chain 1 of 2, the tested form may be a part): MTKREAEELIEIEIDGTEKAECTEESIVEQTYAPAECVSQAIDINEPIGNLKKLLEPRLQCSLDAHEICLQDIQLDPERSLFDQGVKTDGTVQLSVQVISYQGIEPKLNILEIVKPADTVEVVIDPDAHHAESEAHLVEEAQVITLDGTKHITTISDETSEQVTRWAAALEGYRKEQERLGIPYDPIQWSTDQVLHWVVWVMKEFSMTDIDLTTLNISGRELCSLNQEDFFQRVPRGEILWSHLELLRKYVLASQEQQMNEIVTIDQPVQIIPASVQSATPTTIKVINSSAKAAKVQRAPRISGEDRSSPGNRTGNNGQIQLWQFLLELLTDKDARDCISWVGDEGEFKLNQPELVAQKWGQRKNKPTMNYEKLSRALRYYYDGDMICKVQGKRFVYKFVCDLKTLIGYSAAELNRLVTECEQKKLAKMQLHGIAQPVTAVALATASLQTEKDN
Sequence of GABP alpha (MBP fusion from pMAL-C2);GABP beta (MBP fusion from pMAL-C2) (Q06547 whole entry, chain 2 of 2, the tested form may be a part): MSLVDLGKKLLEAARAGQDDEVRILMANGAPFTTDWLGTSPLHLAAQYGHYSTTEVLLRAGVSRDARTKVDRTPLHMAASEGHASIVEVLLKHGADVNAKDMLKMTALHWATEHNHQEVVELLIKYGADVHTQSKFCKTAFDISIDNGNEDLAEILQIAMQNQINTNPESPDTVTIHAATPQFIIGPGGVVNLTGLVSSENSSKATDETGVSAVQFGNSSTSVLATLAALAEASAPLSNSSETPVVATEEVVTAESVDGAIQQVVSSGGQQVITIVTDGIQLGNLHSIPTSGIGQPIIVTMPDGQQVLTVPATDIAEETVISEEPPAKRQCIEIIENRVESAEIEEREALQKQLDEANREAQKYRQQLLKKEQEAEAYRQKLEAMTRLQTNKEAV

B1: UPFR6mGAmUS (dsDNA)
DNA 1: CCTTGGTTTAAGTGGCGGTTTAAAAGCGCGGGAATTACAG
DNA 2: CTGTAATTCCCGCGCTTTTAAACCGCCACTTAAACCAAGG
Take B1: the binding result was “no binding”.

B2: UPFR6mUP (dsDNA)
DNA 1: CCTTCTTTTAAGTTTCAACGGAAAAGCGCGGGAATTACAG
DNA 2: CTGTAATTCCCGCGCTTTTCCGTTGAAACTTAAAAGAAGG
Turning to B2, the binding result is given as “no binding”.

B3: UP (dsDNA)
DNA 1: CCTTGGTTTCCGTGGCAACGGAACCTT
DNA 2: AAGGTTCCGTTGCCACGGAAACCAAGG
On to B3, for which the binding result is on record as “binds”.

B4: UPFR6 (dsDNA)
DNA 1: CCTTGGTTTCCGTGGCAACGGAAAAGCGCGGGAATTACAG
DNA 2: CTGTAATTCCCGCGCTTTTCCGTTGCCACGGAAACCAAGG
In the case of B4, the binding result is reported as “binds”.

B5: UPFR6mGA (dsDNA)
DNA 1: CCTTGGTTTAAGTGGCAACGGAAAAGCGCGGGAATTACAG
DNA 2: CTGTAATTCCCGCGCTTTTCCGTTGCCACTTAAACCAAGG
With B5, the binding result is “no binding”.

B6: UPFR6mUS (dsDNA)
DNA 1: CCTTGGTTTCCGTGGCGGTTTAAAAGCGCGGGAATTACAG
DNA 2: CTGTAATTCCCGCGCTTTTAAACCGCCACGGAAACCAAGG
Take B6: the binding result was “binds”.

The record behind these values is paper PMC2206725, “Characterization of a negative transcriptional element in the BRCA1 promoter”.
